Laboratory results from patent publication US20110098217A1 (INDIANA UNIVERSITY RESEARCH AND TECHNOLOGY, published 2011).
Like-named read-outs stand apart in the source and are kept apart here. Bridge positions count the residues as written; N and C are the ends. Square brackets hold non-standard residues; d marks the D form. Primed or numbered codes have the meaning given here. Side chains are listed from the residue outwards. Ends that are not written are not given here. PEG 20 kDa″ = 20 kDa polyethylene glycol (PEG); PEG 20 kDa = 20 kDa polyethylene glycol; PhLac = O=C(O)[C@@H](O)Cc1ccccc1; Mpa = O=C(O)CCS

Columns and labels:
Assay in all cases: cell-based or functional assay
[1] = target: T1, human GLP-1 receptor (human, UniProt P43220 24-463)
[2] = target: T2, human glucagon receptor (human, UniProt P47871 26-477)
T2 sequence (P47871 26-477): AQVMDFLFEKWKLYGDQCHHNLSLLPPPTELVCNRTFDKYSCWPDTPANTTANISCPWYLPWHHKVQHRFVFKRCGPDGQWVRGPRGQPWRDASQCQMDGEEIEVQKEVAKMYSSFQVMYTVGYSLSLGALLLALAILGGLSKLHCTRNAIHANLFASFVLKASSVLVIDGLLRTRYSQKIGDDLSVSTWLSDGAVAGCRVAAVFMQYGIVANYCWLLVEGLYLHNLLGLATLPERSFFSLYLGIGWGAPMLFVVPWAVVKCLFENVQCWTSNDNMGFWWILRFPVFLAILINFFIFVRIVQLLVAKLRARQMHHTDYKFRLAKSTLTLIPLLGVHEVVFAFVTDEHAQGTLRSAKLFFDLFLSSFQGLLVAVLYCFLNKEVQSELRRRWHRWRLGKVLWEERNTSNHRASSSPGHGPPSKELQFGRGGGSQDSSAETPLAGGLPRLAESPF

[3] = target: T1, human GLP-1 receptor; remark: listed apart in the source
[4] = target: T2, human glucagon receptor; remark: listed apart in the source

[PhLac]TSDYSKYLDERRAKDFVK([Mpa-PEG 20 kDa″])WLMDT-NH2 (lactam 11-15) [[PLA6, E16K20(Lactam), K24(COCH2CH2S-20 kDa)] G(6-29)]
GLP-1 agonism EC50 [1]: 16 to 20 nM
Glucagon antagonism IC50 (inhibit 0.2-0.8 nM glucagon) [2]: 300 to 400 nM

[PhLac]TSDYSKYLDERRAKDFVQWLMDGGPSSGAPPPSC(PEG 20 kDa″)-NH2 (lactam 11-15) [[PLA6, E16K20(Lactam),D28,G29, CEX-C40(20 kDa)]G(6-40)]
GLP-1 agonism EC50 [1]: 180 nM
Glucagon antagonism IC50 (inhibit 0.2-0.8 nM glucagon) [2]: 335 nM

[PhLac]TSDYSKYLDERRAKDFVQWLMDTGPGPGPGPGPC(PEG 20 kDa″)-NH2 (lactam 11-15) [[PLA6, E16K20(Lactam),D28,GP-C40(20 kDa)]G(6-40)]
GLP-1 agonism EC50 [1]: 43.6 nM
Glucagon antagonism IC50 (inhibit 0.2-0.8 nM glucagon) [2]: 423 nM

[PhLac]TSDYSKYLDERRAKDFVK([3‑aminoprop‑1‑ynyl‑benzoic acid-Mpa-PEG 20 kDa])WLMDT-NH2 (lactam 11-15) [[PLA6,E16K20(Lactam), K24(rigid-S-20 kDa)]G(6-29)]
GLP-1 agonism EC50 [1]: 1360 to 2680 nM
Glucagon antagonism IC50 (inhibit 0.2-0.8 nM glucagon) [2]: 393 to 620 nM

B1: [H1A2E3, E9, E16K20(Lactam), GLP(23-32)]G(1-29) (peptide)
peptide: HAEGTFTSEYSKYLDEQAAKEFIAWLMDT-NH2
modifications: lactam 16-20; N-terminus assumed
SMILES: CC[C@H](C)[C@H](NC(=O)[C@H](Cc1ccccc1)NC(=O)[C@H](CCC(=O)O)NC(=O)[C@@H]1CCCCNC(=O)CC[C@H](NC(=O)[C@H](CC(=O)O)NC(=O)[C@H](CC(C)C)NC(=O)[C@H](Cc2ccc(O)cc2)NC(=O)[C@H](CCCCN)NC(=O)[C@H](CO)NC(=O)[C@H](Cc2ccc(O)cc2)NC(=O)[C@H](CCC(=O)O)NC(=O)[C@H](CO)NC(=O)[C@@H](NC(=O)[C@H](Cc2ccccc2)NC(=O)[C@@H](NC(=O)CNC(=O)[C@H](CCC(=O)O)NC(=O)[C@H](C)NC(=O)[C@@H](N)Cc2c[nH]cn2)[C@@H](C)O)[C@@H](C)O)C(=O)N[C@@H](CCC(N)=O)C(=O)N[C@@H](C)C(=O)N[C@@H](C)C(=O)N1)C(=O)N[C@@H](C)C(=O)N[C@@H](Cc1c[nH]c2ccccc12)C(=O)N[C@@H](CC(C)C)C(=O)N[C@@H](CCSC)C(=O)N[C@@H](CC(=O)O)C(=O)N[C@H](C(N)=O)[C@@H](C)O
GLP-1 agonism EC50 [3]: 0.017 nM
Glucagon antagonism IC50 (inhibit 0.2-0.8 nM glucagon) [4]: 2150 nM

B2: [A2E3, E9, E16K20(Lactam), GLP(23-32)]G(2-29) (peptide)
peptide: AEGTFTSEYSKYLDEQAAKEFIAWLMDT-NH2
modifications: lactam 15-19; N-terminus assumed
SMILES: CC[C@H](C)[C@H](NC(=O)[C@H](Cc1ccccc1)NC(=O)[C@H](CCC(=O)O)NC(=O)[C@@H]1CCCCNC(=O)CC[C@H](NC(=O)[C@H](CC(=O)O)NC(=O)[C@H](CC(C)C)NC(=O)[C@H](Cc2ccc(O)cc2)NC(=O)[C@H](CCCCN)NC(=O)[C@H](CO)NC(=O)[C@H](Cc2ccc(O)cc2)NC(=O)[C@H](CCC(=O)O)NC(=O)[C@H](CO)NC(=O)[C@@H](NC(=O)[C@H](Cc2ccccc2)NC(=O)[C@@H](NC(=O)CNC(=O)[C@H](CCC(=O)O)NC(=O)[C@H](C)N)[C@@H](C)O)[C@@H](C)O)C(=O)N[C@@H](CCC(N)=O)C(=O)N[C@@H](C)C(=O)N[C@@H](C)C(=O)N1)C(=O)N[C@@H](C)C(=O)N[C@@H](Cc1c[nH]c2ccccc12)C(=O)N[C@@H](CC(C)C)C(=O)N[C@@H](CCSC)C(=O)N[C@@H](CC(=O)O)C(=O)N[C@H](C(N)=O)[C@@H](C)O
GLP-1 agonism EC50 [3]: 9.8 nM
Glucagon antagonism IC50 (inhibit 0.2-0.8 nM glucagon) [4]: 423 nM

[PhLac]TSDYSKYLDERRAQDFVC(PEG 20 kDa)WLMDT-NH2 (lactam 7-11) [[PLA6, K12E16(lactam), C24(20 kDa), D28]G(6-29)]
GLP-1 agonism EC50 [1]: 550 to 753 nM
Glucagon antagonism IC50 (inhibit 0.2-0.8 nM glucagon) [2]: 628 nM

[PhLac]TSDYSKYLDERRAKDFVQWLMDTGPSSGAPPPSC(PEG 20 kDa″)-NH2 (lactam 11-15) [[PLA6, E16K20(Lactam), D28,CEX-C40(20 kDa)]G(6-40)]
GLP-1 agonism EC50 [1]: 75 to 100 nM
Glucagon antagonism IC50 (inhibit 0.2-0.8 nM glucagon) [2]: 350 to 500 nM
